T1: His-telethonin (full length, pET DUET-1, N-terminal 6x Histidine tag), co-expressed with nesprin-2 SR51-53 (UniProt O15273 1-167)
T1 construct: telethonin, full length; printed mass 19 kDa; source: E. coli BL21(DE3)pLysS, co-expressed with nesprin-2 SR51-53, co-purified (His-trap, SEC); not shown: 6x His, N-terminal, kept
T1 sequence (looked up): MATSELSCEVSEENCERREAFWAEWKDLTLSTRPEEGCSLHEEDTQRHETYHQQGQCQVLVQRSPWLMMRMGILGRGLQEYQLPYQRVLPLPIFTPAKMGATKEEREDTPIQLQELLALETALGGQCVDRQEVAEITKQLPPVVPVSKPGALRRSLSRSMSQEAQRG

B1: nesprin-2 SR51-53 (no tag), co-expressed with His-telethonin (domain or fragment, human, UniProt Q8WXH0 6018-6354, looked up)
chain: KETFAFIQQLDKNMSNLRTWLARIESELSKPVVYDVCDDQEIQKRLAEQQDLQRDIEQHSAGVESVFNICDVLLHDSDACANETECDSIQQTTRSLDRRWRNICAMSMERRMKIEETWRLWQKFLDDYSRFEDWLKSAERTAACPNSSEVLYTSAKEELKRFEAFQRQIHERLTQLELINKQYRRLARENRTDTASRLKQMVHEGNQRWDNLQRRVTAVLRRLRHFTNQREEFEGTRESILVWLTEMDLQLTNVEHFSESDADDKMRQLNGFQQEITLNTNKIDQLIVFGEQLIQKSEPLDAVLIEDELEELHRYCQEVFGRVSRFHRRLTSCTPGL
notes: nesprin-2 giant, human, spectrin repeats 51-53, amino acids 6018-6354 of the full length of nesprin-2 giant; in CDF DUET-1 without a tag; printed mass 40.51 kDa; source: E. coli BL21(DE3)pLysS, co-expressed with His-telethonin, co-purified (His-trap, SEC)

Experiments:
[1] = molecular target: nesprin-2, endogenous ~200 kDa band of neonatal rat heart and neonatal rat cardiomyocytes; test: co-immunoprecipitation with telethonin antibody, Western blot densitometry; conditions: lysates harvested 48 h after adenoviral infection, n = 5, parent: est. 1.0, read off a plot
[2] = molecular target: T1, His-telethonin (full length, pET …); test: SEC; His-telethonin and untagged nesprin-2 SR51-53 co-expressed in E. coli, His-trap, Superdex 200 16/60, then Superdex 75 10/300; 50 mM Tris/HCl pH 7.5, 150 mM NaCl, 100 mM βME; single peak at 10.29 ml, both proteins found by Western blot; conditions: both partners purified

Molecule | ratio to parent [1] | stoichiometry N [2]
HA-tagged WT telethonin expressed from adenovirus in neonatal rat cardiomyocytes (from UniProt O15273) S157A; S161A | 4.8 | 
B1 |  | 1 nesprin-2 SR51-53 per telethonin

Source: PMC11078644, “Nesprin-2 is a novel scaffold protein for telethonin and FHL-2 in the cardiomyocyte sarcomere” (The Journal of Biological Chemistry, 2024)
